According to article doi:10.1101/2021.02.24.432666 (bioRxiv, 2021):
Where “and” joins values, the source holds several entries; their conditions need not be identical. Identical values can stand only once. Like-named read-outs stand apart in the source and are kept apart here.

Key:
[1] = molecular target: the molecule itself; experiment: SEC + other: negative-staining electron microscopy
cryo-EM structure [2] = molecular target: the molecule itself; experiment: cryo-EM structure
cryo-EM structure [3] = molecular target: the molecule itself; experiment: cryo-EM structure; remark: listed apart in the source
[4] = molecular target: the molecule itself; experiment: negative-staining electron microscopy

B1: yeast TRiC subunit CCT7 (natural protein, UniProt P42943 1-550, looked up)
chain: MNFGSQTPTIVVLKEGTDASQGKGQIISNINACVAVQEALKPTLGPLGSDILIVTSNQKTTISNDGATILKLLDVVHPAAKTLVDISRAQDAEVGDGTTSVTILAGELMKEAKPFLEEGISSHLIMKGYRKAVSLAVEKINELAVDITSEKSSGRELLERCARTAMSSKLIHNNADFFVKMCVDAVLSLDRNDLDDKLIGIKKIPGGAMEESLFINGVAFKKTFSYAGFEQQPKKFNNPKILSLNVELELKAEKDNAEVRVEHVEDYQAIVDAEWQLIFEKLRQVEETGANIVLSKLPIGDLATQFFADRNIFCAGRVSADDMNRVIQAVGGSIQSTTSDIKPEHLGTCALFEEMQIGSERYNLFQGCPQAKTCTLLLRGGAEQVIAEVERSLHDAIMIVKRALQNKLIVAGGGATEMEVSKCLRDYSKTIAGKQQMIINAFAKALEVIPRQLCENAGFDAIEILNKLRLAHSKGEKWYGVVFETENIGDNFAKFVWEPALVKINALNSATEATNLILSVDETITNKGSESANAGMMPPQGAGRGRGMPM
binding result [1]: binds

B2: yeast TRiC subunit CCT6 (natural protein)
chain: not shown
stoichiometry N (cryo-EM structure [2]): 8 subunits per ring and 9 subunits per ring
stoichiometry N (cryo-EM structure [3]): 8 subunits per ring (double ring) and 9 subunits per ring (double ring)

B3: yeast TRiC subunit CCT2 (natural protein)
chain: MSVQIFGDQVTEERAENARLSAFVGAIAVGDLVKSTLGPKGMDKLLQSASSNTCMVTNDGATILKSIPLDNPAAKVLVNISKVQDDEVGDGTTSVTVLSAELLREAEKLIDQSKIHPQTIIEGYRLASAAALDALTKAAVDNSHDKTMFREDLIHIAKTTLSSKILSQDKDHFAELATNAILRLKGSTNLEHIQIIKILGGKLSDSFLDEGFILAKKFGNNQPKRIENAKILIANTTLDTDKVKIFGTKFKVDSTAKLAQLEKAEREKMKNKIAKISKFGINTFINRQLIYDYPEQLFTDLGINSIEHADFEGVERLALVTGGEVVSTFDEPSKCKLGECDVIEEIMLGEQPFLKFSGCKAGEACTIVLRGATDQTLDEAERSLHDALSVLSQTTKETRTVLGGGCAEMVMSKAVDTEAQNIDGKKSLAVEAFARALRQLPTILADNAGFDSSELVSKLRSSIYNGISTSGLDLNNGTIADMRQLGIVESYKLKRAVVSSASEAAEVLLRVDNIIRARPRTANRQHM
stoichiometry N (cryo-EM structure [3]): 8 subunits per ring (double ring)

B4: yeast TRiC subunit CCT4 (natural protein, UniProt P39078 1-528, looked up)
chain: MSAKVPSNATFKNKEKPQEVRKANIIAARSVADAIRTSLGPKGMDKMIKTSRGEIIISNDGHTILKQMAILHPVARMLVEVSAAQDSEAGDGTTSVVILTGALLGAAERLLNKGIHPTIIADSFQSAAKRSVDILLEMCHKVSLSDREQLVRAASTSLSSKIVSQYSSFLAPLAVDSVLKISDENSKNVDLNDIRLVKKVGGTIDDTEMIDGVVLTQTAIKSAGGPTRKEKAKIGLIQFQISPPKPDTENNIIVNDYRQMDKILKEERAYLLNICKKIKKAKCNVLLIQKSILRDAVNDLALHFLSKLNIMVVKDIEREEIEFLSKGLGCKPIADIELFTEDRLGSADLVEEIDSDGSKIVRVTGIRNNNARPTVSVVIRGANNMIIDETERSLHDALCVIRCLVKERGLIAGGGAPEIEISRRLSKEARSMEGVQAFIWQEFASALEVIPTTLAENAGLNSIKVVTELRSKHENGELNDGISVRRSGTTNTYEEHILQPVLVSTSAITLASECVKSILRIDDIAFSR
binding result [1]: binds

B5: yeast CCT5 with the N-terminal 24 amino acids truncated (CCT5^ΔNT) (domain or fragment, UniProt P40413 25-562, looked up)
chain: MGRPFIIVKDQGNKKRQHGLEAKKSHILAARSVASIIKTSLGPRGLDKILISPDGEITITNDGATILSQMELDNEIAKLLVQLSKSQDDEIGDGTTGVVVLASALLDQALELIQKGIHPIKIANGFDEAAKLAISKLEETCDDISASNDELFRDFLLRAAKTSLGSKIVSKDHDRFAEMAVEAVINVMDKDRKDVDFDLIKMQGRVGGSISDSKLINGVILDKDFSHPQMPKCVLPKEGSDGVKLAILTCPFEPPKPKTKHKLDISSVEEYQKLQTYEQDKFKEMIDDVKKAGADVVICQWGFDDEANHLLLQNDLPAVRWVGGQELEHIAISTNGRIVPRFQDLSKDKLGTCSRIYEQEFGTTKDRMLIIEQSKETKTVTCFVRGSNKMIVDEAERALHDSLCVVRNLVKDSRVVYGGGAAEVTMSLAVSEEADKQRGIDQYAFRGFAQALDTIPMTLAENSGLDPIGTLSTLKSKQLKEKISNIGVDCLGYGSNDMKELFVVDPFIGKKQQILLATQLCRMILKIDNVIISGKDEY
binding result [4]: binds

B6: yeast TRiC subunit CCT3 (natural protein, UniProt P39077 1-534, looked up)
chain: MQAPVVFMNASQERTTGRQAQISNITAAKAVADVIRTCLGPKAMLKMLLDPMGGLVLTNDGHAILREIDVAHPAAKSMLELSRTQDEEVGDGTTTVIILAGEILAQCAPYLIEKNIHPVIIIQALKKALTDALEVIKQVSKPVDVENDAAMKKLIQASIGTKYVIHWSEKMCELALDAVKTVRKDLGQTVEGEPNFEIDIKRYVRVEKIPGGDVLDSRVLKGVLLNKDVVHPKMSRHIENPRVVLLDCPLEYKKGESQTNIEIEKEEDWNRILQIEEEQVQLMCEQILAVRPTLVITEKGVSDLAQHYLLKGGCSVLRRVKKSDNNRIARVTGATIVNRVEDLKESDVGTNCGLFKVEMIGDEYFSFLDNCKEPKACTIMLRGGSKDILNEIDRNLQDAMAVARNVMLSPSLSPGGGATEMAVSVKLAEKAKQLEGIQQWPYQAVADAMECIPRTLIQNAGGDPIRLLSQLRAKHAQGNFTTGIDGDKGKIVDMVSYGIWEPEVIKQQSVKTAIESACLLLRVDDIVSGVRKQE
binding result [1]: binds

B7: yeast TRiC subunit CCT8 (natural protein, UniProt P47079 1-568, looked up)
chain: MSLRLPQNPNAGLFKQGYNSYSNADGQIIKSIAAIRELHQMCLTSMGPCGRNKIIVNHLGKIIITNDAATMLRELDIVHPAVKVLVMATEQQKIDMGDGTNLVMILAGELLNVSEKLISMGLSAVEIIQGYNMARKFTLKELDEMVVGEITDKNDKNELLKMIKPVISSKKYGSEDILSELVSEAVSHVLPVAQQAGEIPYFNVDSIRVVKIMGGSLSNSTVIKGMVFNREPEGHVKSLSEDKKHKVAVFTCPLDIANTETKGTVLLHNAQEMLDFSKGEEKQIDAMMKEIADMGVECIVAGAGVGELALHYLNRYGILVLKVPSKFELRRLCRVCGATPLPRLGAPTPEELGLVETVKTMEIGGDRVTVFKQEQGEISRTSTIILRGATQNNLDDIERAIDDGVAAVKGLMKPSGGKLLPGAGATEIELISRITKYGERTPGLLQLAIKQFAVAFEVVPRTLAETAGLDVNEVLPNLYAAHNVTEPGAVKTDHLYKGVDIDGESDEGVKDIREENIYDMLATKKFAINVATEAATTVLSIDQIIMAKKAGGPRAPQGPRPGNWDQED
binding result [1]: binds

B8: yeast TRiC subunit CCT1 (natural protein)
chain: not shown
stoichiometry N (cryo-EM structure [2]): 9 subunit pairs
stoichiometry N (cryo-EM structure [3]): 8 subunits per ring (double ring)
